Measurements reported in patent publication US20220031841A1 (ABSCI, published 2022).

Columns and labels:
Test in all cases: HuProt protein array, F635 z-score
[1] = biological target: T1, Src homology 2 (SH2) domain containing inositol polyphosphate 5-phosphatase 1 (SHIP1) (human, UniProt Q92835 1-1189)
T1 construct: The array carries full-length recombinant human proteins expressed in S. cerevisiae, purified and printed on glass slides; also called INPP5D; INPP5D/SHIP1
T1 sequence: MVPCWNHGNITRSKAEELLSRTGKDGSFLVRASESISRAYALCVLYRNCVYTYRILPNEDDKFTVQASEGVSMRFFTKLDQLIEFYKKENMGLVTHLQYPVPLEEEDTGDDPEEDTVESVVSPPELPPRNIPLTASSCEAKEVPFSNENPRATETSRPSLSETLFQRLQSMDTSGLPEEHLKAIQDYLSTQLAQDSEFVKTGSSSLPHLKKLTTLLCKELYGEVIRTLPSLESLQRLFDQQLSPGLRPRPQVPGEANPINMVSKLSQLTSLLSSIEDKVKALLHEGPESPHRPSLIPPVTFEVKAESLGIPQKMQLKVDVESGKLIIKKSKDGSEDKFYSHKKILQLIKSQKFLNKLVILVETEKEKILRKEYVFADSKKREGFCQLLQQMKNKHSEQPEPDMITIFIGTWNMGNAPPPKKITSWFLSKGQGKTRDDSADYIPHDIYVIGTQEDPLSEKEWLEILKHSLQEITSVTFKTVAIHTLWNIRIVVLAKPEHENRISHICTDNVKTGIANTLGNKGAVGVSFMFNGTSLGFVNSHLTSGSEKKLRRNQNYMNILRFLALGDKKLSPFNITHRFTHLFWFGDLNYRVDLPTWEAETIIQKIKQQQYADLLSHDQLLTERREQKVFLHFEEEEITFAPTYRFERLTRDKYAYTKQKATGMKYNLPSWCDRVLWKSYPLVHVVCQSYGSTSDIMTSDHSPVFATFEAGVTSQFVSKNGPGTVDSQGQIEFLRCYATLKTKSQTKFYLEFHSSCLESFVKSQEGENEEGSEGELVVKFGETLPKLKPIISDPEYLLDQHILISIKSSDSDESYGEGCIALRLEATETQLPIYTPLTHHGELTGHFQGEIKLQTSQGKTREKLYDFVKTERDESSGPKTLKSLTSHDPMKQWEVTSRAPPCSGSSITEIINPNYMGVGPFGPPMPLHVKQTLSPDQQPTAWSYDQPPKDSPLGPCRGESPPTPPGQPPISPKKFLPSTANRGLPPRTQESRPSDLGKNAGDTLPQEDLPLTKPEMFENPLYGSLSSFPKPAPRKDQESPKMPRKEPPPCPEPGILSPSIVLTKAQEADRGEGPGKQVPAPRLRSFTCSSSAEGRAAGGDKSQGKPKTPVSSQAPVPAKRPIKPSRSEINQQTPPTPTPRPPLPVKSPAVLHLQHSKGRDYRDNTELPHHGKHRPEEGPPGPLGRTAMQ
Source text: (§1) Large scale protein arrays are versatile and sensitive platforms for antibody specificity evaluation. They can be used for the evaluation of protein binding or affinity reagents that are widely employed in research and clinical applications. The microarray used in our target identification experiment provides the largest number of unique, full-length, individually purified human proteins on a single microscope slide. This allows thousands of interactions to be profiled in a high-throughput manner. The hill-length recombinant proteins are expressed in the yeast S. cerevisiae, purified, and printed on glass slides in duplicate along with a set of control proteins (GST, BSA, histones, IgG, etc.). Such microarray is not restricted to a particular type of surface coating, although the default is glass coated with ultra-thin nitrocellulose film for the non-covalent, yet irreversible, capture of active proteins to the surface. Fourteen Protein arrays were used for the antibody cross-reactivity assay of the samples. The antibodies were probed at […] on the arrays and incubated at room temperature for 1 hour. After probing, the arrays were washed according to the protocol and probed with Alexa-647-anti-human IgG […] specific secondary antibodies under conditions optimized for signal detection. The antibody-antigen binding score was calculated for each protein represented on the array and expressed as z-scores.
(§2) Antibody samples are probed on native HuProt arrays at 1 μg/ml and incubated at room temperature for 1 hour. After probing, the arrays are washed according to the standard protocols and probed with Alexa-647-anti-human IgG Fc gamma specific secondary antibodies under conditions optimized for signal detection.
(§3) Z score is the average Z score of the duplicate spots of a given protein (each protein is printed in duplicate on a HuProt™ array). The Z score of each spot on a given array is calculated according to the equation: […]

[2] = biological target: T2, Chromobox protein homolog 1 (CBX1) (human, UniProt P83916 1-185)
T2 construct: The array carries full-length recombinant human proteins expressed in S. cerevisiae; also called Human Chromobox protein homolog 1
T2 sequence (P83916 whole entry): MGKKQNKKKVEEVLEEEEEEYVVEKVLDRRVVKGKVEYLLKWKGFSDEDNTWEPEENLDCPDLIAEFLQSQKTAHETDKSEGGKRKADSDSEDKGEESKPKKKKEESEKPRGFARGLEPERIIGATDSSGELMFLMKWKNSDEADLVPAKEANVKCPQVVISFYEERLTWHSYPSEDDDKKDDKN
Source text: as §1, §2, §3

[3] = biological target: T3, Chromobox protein homolog 5 (CBX5) (human, UniProt P45973 1-191)
T3 construct: The array carries full-length recombinant human proteins expressed in S. cerevisiae; also called Human Chromobox protein homolog 5
T3 sequence (P45973 whole entry): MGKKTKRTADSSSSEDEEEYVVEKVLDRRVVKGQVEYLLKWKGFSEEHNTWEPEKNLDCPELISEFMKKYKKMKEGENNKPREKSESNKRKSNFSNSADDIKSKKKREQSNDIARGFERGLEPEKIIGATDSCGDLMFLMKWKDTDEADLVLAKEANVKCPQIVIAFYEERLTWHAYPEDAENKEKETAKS
Source text: as §1, §2, §3

[4] = biological target: T4, Inorganic pyrophosphatase (PPA1) (human, UniProt Q15181 2-289)
T4 construct: The array carries full-length recombinant human proteins expressed in S. cerevisiae; also called Human PPA1
T4 sequence: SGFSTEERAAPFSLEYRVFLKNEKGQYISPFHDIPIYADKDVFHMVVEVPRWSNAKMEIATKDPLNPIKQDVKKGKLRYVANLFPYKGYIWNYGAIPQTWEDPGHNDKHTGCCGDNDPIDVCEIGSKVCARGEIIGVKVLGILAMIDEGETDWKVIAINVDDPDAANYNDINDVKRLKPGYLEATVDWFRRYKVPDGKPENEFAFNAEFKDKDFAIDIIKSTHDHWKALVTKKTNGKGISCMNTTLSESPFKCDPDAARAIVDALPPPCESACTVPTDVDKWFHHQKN
Source text: as §1, §2, §3

[5] = biological target: T5, Alpha-taxilin (TXLNA) also known as interleukin-14A (human, UniProt P40222 1-546)
T5 construct: The array carries full-length recombinant human proteins expressed in S. cerevisiae; also called IL-14A; TXLNA/IL-14A
T5 sequence (P40222 whole entry): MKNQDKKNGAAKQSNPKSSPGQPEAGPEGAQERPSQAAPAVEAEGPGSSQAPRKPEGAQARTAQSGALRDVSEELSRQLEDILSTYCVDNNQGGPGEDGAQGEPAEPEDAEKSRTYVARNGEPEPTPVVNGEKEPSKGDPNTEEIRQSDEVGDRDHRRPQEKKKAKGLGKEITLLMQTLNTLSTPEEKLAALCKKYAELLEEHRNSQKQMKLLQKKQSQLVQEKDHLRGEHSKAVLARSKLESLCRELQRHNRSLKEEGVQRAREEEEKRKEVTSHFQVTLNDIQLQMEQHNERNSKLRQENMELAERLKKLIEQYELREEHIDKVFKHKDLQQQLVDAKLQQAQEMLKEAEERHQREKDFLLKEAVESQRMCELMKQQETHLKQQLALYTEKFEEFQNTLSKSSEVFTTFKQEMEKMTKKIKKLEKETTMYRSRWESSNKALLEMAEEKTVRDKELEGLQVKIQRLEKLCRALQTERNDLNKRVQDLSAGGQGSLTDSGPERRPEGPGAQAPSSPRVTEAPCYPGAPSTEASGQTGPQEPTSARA
Source text: as §1, §2, §3

[6] = biological target: T6, O-linked N-acetylglucosamine (GlcNAc) transferase (OGT) (human, UniProt O15294 2-1046)
T6 construct: The array carries full-length recombinant human proteins expressed in S. cerevisiae; also called Human OGT
T6 sequence: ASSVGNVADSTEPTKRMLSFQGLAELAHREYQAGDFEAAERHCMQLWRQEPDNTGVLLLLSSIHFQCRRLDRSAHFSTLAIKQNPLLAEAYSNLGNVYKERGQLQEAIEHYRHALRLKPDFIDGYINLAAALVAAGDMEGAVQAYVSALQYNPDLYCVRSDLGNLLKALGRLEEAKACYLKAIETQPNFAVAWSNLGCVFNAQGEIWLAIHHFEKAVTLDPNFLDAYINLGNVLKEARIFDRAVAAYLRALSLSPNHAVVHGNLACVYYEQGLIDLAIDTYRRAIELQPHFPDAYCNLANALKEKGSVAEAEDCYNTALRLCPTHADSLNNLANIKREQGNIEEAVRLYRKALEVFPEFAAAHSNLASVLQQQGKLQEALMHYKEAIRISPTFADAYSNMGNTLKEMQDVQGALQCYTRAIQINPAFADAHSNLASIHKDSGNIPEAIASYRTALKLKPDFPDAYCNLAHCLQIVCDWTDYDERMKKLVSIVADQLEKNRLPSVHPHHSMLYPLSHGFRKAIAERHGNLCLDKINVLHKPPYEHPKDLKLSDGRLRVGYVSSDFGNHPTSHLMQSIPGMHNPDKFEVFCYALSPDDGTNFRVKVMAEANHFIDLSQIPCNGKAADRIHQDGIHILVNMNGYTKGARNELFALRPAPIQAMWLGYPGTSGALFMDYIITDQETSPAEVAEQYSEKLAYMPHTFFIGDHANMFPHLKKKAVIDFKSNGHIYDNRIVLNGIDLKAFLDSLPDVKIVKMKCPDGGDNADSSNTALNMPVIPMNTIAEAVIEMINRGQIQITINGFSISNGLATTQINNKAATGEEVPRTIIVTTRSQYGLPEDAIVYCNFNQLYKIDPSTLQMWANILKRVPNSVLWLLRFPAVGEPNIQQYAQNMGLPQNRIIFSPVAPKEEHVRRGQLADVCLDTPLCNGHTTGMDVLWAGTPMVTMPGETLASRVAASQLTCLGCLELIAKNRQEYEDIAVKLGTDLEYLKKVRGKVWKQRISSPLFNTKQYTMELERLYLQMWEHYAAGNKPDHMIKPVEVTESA
Source text: as §1, §2, §3

[7] = biological target: T7, Cancer/testis antigen 1 (CTAG1A) (human, UniProt P78358 1-180)
T7 construct: The array carries full-length recombinant human proteins expressed in S. cerevisiae; also called NY-ESO-1; Cancer/Testis Antigen 1A
T7 sequence (P78358 whole entry): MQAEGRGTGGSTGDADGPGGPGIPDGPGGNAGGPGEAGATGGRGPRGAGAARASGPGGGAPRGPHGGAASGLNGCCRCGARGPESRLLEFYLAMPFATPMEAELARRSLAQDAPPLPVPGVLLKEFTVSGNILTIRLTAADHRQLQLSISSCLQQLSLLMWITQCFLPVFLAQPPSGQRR
Source text: as §1, §2, §3

[8] = biological target: T8, Melanoma-associated antigen 3 (MAGE-A3) (human, UniProt P43357 1-314)
T8 construct: The array carries full-length recombinant human proteins expressed in S. cerevisiae; also called Human MAGE-A3
T8 sequence (P43357 whole entry): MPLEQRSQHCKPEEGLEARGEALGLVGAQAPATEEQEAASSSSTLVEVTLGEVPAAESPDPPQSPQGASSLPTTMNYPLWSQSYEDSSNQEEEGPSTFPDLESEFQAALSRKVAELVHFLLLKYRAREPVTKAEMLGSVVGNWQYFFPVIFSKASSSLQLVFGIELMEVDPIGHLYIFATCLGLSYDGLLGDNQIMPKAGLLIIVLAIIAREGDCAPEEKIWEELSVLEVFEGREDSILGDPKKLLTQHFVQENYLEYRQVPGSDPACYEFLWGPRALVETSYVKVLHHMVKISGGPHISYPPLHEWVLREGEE
Source text: as §1, §2, §3

Measured: binding result

B1: TMEL1006 (antibody, V domains shown)
VH: VVQLVESGGGLVQPGGSLRLSCAASGLTFRNYAMSWVRQAPGKGLEWVSAISGSGGRTHYADSVKGRFTISRDNSKNTLFLQMNSLRAEDTAVYYCAKEIGKYGTPTLFQHWGQGTLVTVSS
VL: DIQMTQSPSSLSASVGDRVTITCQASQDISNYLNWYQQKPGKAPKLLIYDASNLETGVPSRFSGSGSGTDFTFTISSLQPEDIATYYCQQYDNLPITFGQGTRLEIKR
notes: It was detected with an anti-human IgG Fc gamma secondary antibody
not listed: [7] | [8]
no binding (tested: 1 µg/ml): all other assays above

B2: TMEL1003 (antibody, V domains shown)
VH: AVQLVQSGAEVKKPGESLRISCKGSGYSFTSYWISWVRQMPGKGLEWMGRIDPSDSYTNYSPSFQGHVTISADKSISTAYLQWSSLKTSDTAMYYCARPLQTYSIASVGHWGQGTLVTVSS
VL: ASALTQPASVSGSPGQSITISCTGTSSDVGSYNLVSWYQQHPGKAPKLMIYEGSKRPSGVSNRFSGSKSGNTASLTISGLQAEDEADYYCCSYAGSSTFAVFGGGTKLTVLG
notes: the heavy entry continues into what looks like a non-IgG (IgM-like) CH1; It was detected with an anti-human IgG Fc gamma secondary antibody
no binding (tested: 1 µg/ml): [1] | [7] | [8] | [4] | [6]

B3: TMEL1001 (antibody, V domains shown)
VH: EVQLVESGGGLVKPGGSLRLSCAASGFTFRSYSMNWVRQAPGKGLEWVSSISSSGNYIYYADSVKGRFTLSRDNAKNSLYLQMNSLRAEDTAVYYCARGGGTSWSHYWGQGTLVTVSS
VL: QFMLTQPHSVSESPGKTVTISCTRSSGSIASNYVQWYQQRPGSAPTTVIYEDNERPSGVPDRFSGSIDSSSNSASLTISGLKTEDEADYYCQSYDSNNRWVFGGGTKLTVLG
notes: as for B1
not listed: [1]
no binding (tested: 1 µg/ml): all other assays above
